Assay results from PMC2843815 (Protein expression and purification, 2010).

Target: the molecule itself
Experiment: SEC-MALS

B1: Bor1p (natural protein, S. cerevisiae)
chain: MSNESTRVTVSRGCTASDECAQALERTNDELDRESSVSESRSDEESHEKLSRRRFPTLGIGIWLDLKDRIPYYKSDWVDAFNYRVIPSIVDTYFNNLLPAIAFAQDMFDRTDNSYGVNEVLLSSAMAGIVFGVLGGQPLCIVGVTGPISIFNYTVYEIIKPLNTSYFGFMFWICMWSMIFHLVLAFTNAVCLLQYVTTFPCDIFGLFINVVYIQKGIQILTRQFSAKSGEKSVQDGFASVVVALVMTAFGLFFKLFHYYPLFSHRIRTFISDYSTALSVLFWSSFTHFGGYLHDVKFKKLPITKAFFPTSKVNRPQNTWLAYEPIPVKDVFIALPFGIFLTILFYFDHNVSSLMAQRHQYKLKKPSSFHYDFALLGLTTCISGVLGIPAPNGLIPQAPLHTETLLVRDSNQKVISCVEQRFTNTFQGLMILGTMTRPLLVCLGEIPQAVLSGLFFIMGINGLMTNSIIQRLVFLFSDPNRRDNTSPLMKVSKKSMLIFLSFSLTGFAGEFAITNTIAAIGFPLVLLLSVLVSFSFAYIFPTEELKILDTNVAQKFTIKNLLLENIRDAKFCDKHEDSGLEVLFQ
With B1 the “stoichiometry N” value was 2.
